B1: DNA endonuclease SAE2 (Saccharomyces cerevisiae), P46946 (parent)
chain: MVTGEENVYLKSSLSILKELSLDELLNVQYDVTTLIAKRVQALQNRNKCVLEEPNSKLAEILCHEKNAPQQSSQTSAGPGEQDSEDFILTQFDEDIKKESAEVHYRNENKHTVQLPLVTMPPNRHKRKISEFSSPLNGLNNLSDLEDCSDTVIHEKDNDKENKTRKLLGIELENPESTSPNLYKNVKDNFLFDFNTNPLTKRAWILEDFRPNEDIAPVKRGRRKLERFYAQVGKPEDSKHRSLSVVIESQNSDYEFAFDNLRNRSKSPPGFGRLDFPSTQEGNEDKKKSQEIIRRKTKYRFLMASNNKIPPYEREYVFKREQLNQIVDDGCFFWSDKLLQIYARC
partner: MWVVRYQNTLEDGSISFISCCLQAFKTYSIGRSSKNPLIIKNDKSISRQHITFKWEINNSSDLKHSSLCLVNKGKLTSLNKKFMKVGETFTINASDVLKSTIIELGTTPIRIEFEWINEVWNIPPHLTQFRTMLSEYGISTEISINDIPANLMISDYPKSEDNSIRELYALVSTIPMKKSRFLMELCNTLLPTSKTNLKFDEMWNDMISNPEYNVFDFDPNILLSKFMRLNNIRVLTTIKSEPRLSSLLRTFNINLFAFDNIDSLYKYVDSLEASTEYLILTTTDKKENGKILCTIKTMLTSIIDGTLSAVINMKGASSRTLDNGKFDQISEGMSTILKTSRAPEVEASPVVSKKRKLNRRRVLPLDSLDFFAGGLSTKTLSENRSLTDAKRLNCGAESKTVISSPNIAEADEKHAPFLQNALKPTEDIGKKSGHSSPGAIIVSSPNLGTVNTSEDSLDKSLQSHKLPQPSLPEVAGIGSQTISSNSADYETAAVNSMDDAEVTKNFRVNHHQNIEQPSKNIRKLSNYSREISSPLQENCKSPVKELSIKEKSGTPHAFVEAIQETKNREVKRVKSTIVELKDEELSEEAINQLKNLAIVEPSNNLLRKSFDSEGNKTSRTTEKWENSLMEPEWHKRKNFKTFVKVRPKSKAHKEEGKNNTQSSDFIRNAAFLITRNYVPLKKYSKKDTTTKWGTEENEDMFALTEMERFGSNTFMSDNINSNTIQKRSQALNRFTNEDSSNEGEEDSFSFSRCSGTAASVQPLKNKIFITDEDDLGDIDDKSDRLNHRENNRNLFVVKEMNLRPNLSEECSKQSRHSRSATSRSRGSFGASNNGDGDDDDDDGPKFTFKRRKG

Consider 3 variants from IntAct's records for PubMed 25231868.

Variants of B1 are the subject of this assay. The settings on record: with xrs2_yeast XRS2, P33301.
Take S267A;P268A: the “effect of a mutation on the interaction” value is reported as “disrupting interaction strength”. Consider P277A;S278A;T279A, for which the “effect of a mutation on the interaction” value is on record as “decreasing interaction strength”. Next, G270D: “decreasing interaction strength”.
